Substitutions are numbered along the chain they refer to.
T1: human chemokine receptor CCR7 (human, UniProt P32248 25-378)
T1 sequence: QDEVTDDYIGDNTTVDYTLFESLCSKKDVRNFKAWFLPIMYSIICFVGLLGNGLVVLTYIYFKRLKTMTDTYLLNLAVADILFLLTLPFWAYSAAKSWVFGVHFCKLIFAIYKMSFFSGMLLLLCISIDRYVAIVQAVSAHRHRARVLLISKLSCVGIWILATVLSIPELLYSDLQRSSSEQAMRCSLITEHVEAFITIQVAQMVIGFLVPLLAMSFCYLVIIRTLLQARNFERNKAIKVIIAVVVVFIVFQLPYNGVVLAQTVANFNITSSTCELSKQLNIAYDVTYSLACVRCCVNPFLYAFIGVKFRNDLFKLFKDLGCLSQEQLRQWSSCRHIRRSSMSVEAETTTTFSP

T2: human CD22 (human, UniProt P20273 20-847)
T2 sequence (looked up): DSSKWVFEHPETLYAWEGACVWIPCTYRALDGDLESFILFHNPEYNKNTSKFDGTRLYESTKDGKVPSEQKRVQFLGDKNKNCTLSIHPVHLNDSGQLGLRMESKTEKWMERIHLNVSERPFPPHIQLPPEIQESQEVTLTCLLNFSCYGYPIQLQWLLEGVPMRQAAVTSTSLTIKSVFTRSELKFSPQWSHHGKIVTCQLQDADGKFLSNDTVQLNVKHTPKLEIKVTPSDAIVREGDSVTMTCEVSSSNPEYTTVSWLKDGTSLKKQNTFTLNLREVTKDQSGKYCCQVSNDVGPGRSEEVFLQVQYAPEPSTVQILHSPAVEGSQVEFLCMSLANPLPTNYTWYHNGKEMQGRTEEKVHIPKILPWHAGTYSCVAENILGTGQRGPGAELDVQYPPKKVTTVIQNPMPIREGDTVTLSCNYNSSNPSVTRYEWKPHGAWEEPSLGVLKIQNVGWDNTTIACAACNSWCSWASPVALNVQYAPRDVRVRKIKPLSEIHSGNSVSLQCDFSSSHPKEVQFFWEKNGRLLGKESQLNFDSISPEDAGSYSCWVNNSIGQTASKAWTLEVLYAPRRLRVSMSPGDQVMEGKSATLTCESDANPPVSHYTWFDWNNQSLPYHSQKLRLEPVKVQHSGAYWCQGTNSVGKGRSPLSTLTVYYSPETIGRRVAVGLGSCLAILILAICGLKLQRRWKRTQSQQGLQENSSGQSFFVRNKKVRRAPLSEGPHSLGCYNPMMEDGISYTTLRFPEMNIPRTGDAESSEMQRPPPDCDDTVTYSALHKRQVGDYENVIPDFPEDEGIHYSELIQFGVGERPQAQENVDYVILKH

B1: MSM R707 in IgG4 format (antibody)
heavy: EVQLLESGGGLVQPGGSLRLSCAASGFTFSNYAIHWVRQAPGKGLEWVSAITPRGGYTYYADSVKGRFTISRDNSKNTLYLQMNSLRAEDTAVYYCARGLTMMYTPGMDYWGQGTLVTVSSASTKGPSVFPLAPCSRSTSESTAALGCLVKDYFPEPVTVSWNSGALTSGVHTFPAVLQSSGLYSLSSVVTVPSSSLGTKTYTCNVDHKPSNTKVDKRVESKYGPPCPSCPAPEFLGGPSVFLFPPKPKDTLMISRTPEVTCVVVDVSQEDPEVQFNWYVDGVEVHNAKTKPREEQFNSTYRVVSVLTVLHQDWLNGKEYKCKVSNKGLPSSIEKTISKAKGQPREPQVYTLPPSQEEMTKNQVSLTCLVKGFYPSDIAVEWESNGQPENNYKTTPPVLDSDGSFFLYSRLTVDKSRWQEGNVFSCSVMHEALHNHYTQKSLSLSPGK
light: not shown
notes: also called IgG4 R707; IgG4 formatted MSM R707
B2: MSM R735 in IgG4 format (antibody)
heavy: EVQLLESGGGLVQPGGSLRLSCAASGFTFSNYNMHWVRQAPGKGLEWVSGIGPRRGRTYYADSVKGRFTISRDNSKNTLYLQMNSLRAEDTAVYYCARSYAYQYRGLDYWGQGTLVTVSSASTKGPSVFPLAPCSRSTSESTAALGCLVKDYFPEPVTVSWNSGALTSGVHTFPAVLQSSGLYSLSSVVTVPSSSLGTKTYTCNVDHKPSNTKVDKRVESKYGPPCPSCPAPEFLGGPSVFLFPPKPKDTLMISRTPEVTCVVVDVSQEDPEVQFNWYVDGVEVHNAKTKPREEQFNSTYRVVSVLTVLHQDWLNGKEYKCKVSNKGLPSSIEKTISKAKGQPREPQVYTLPPSQEEMTKNQVSLTCLVKGFYPSDIAVEWESNGQPENNYKTTPPVLDSDGSFFLYSRLTVDKSRWQEGNVFSCSVMHEALHNHYTQKSLSLSPGK
light: EIVLTQSPGTLSLSPGERATLSCRASQSVSSSYLAWYQQKPGQAPRLLIYGASSRATGIPDRFSGSGSGTDFTLTISRLEPEDFAVYYCQQGSPVTFGQGTKVEIKRTVAAPSVFIFPPSDEQLKSGTASVVCLLNNFYPREAKVQWKVDNALQSGNSQESVTEQDSKDSTYSLSSTLTLSKADYEKHKVYACEVTHQGLSSPVTKSFNRGEC
notes: also called IgG4 formatted MSM R735
B3: mouse anti-human CD22 monoclonal antibody (antibody, V domains shown)
VH: QVQLQQSGAELVKPGASVKMSCKASGYTFTSYWLHWIKQRPGQGLEWIGYINPRNDYTEYNQKFKDKATLTADKSSSTAYMQLSSLTSEDSAVYYCARRDITTFYWGQGTTLTVSS
VL: DIQLTQSPSSLAVSAGENVTMSCKSSQSVLYSANHKNYLAWYQQKPGQSPKLLIYWASTRESGVPDRFTGSGSGTDFTLTISRVQVEDLAIYYCHQYLSSWTFGGGTKLEIK
B4: MSM-R707BI (fully human anti-human CCR7 antibody, IgG1) (antibody, V domains shown)
VH: EVQLLESGGGLVQPGGSLRLSCAASGFTFSNYAIHWVRQAPGKGLEWVSAITPRGGYTYYADSVKGRFTISRDNSKNTLYLQMNSLRAEDTAVYYCARGLTISYTPGFDYWGQGTLVTVSS
VL: not shown
notes: IgG1 format; HC CDR3 derivative of MSM-R707; also called MSM-R7707BI; R707B1
B5: MSM-R707BL (fully human anti-human CCR7 antibody, IgG1) (antibody, V domains shown)
VH: B4 VH with I102L
VL: not shown
notes: IgG1 format; HC CDR3 derivative of MSM-R707
B6: MSM-R707BR (fully human anti-human CCR7 antibody, IgG1) (antibody, V domains shown)
VH: B4 VH with I102R
VL: not shown
notes: as for B5
B7: R707MSF (MSM-R707 HC CDR3 mutant, IgG1) (antibody, V domains shown)
VH: B4 VH with I102M
VL: not shown
notes: IgG1
B8: R707LMF (MSM-R707 HC CDR3 mutant, IgG1) (antibody, V domains shown)
VH: B4 VH with I102L, S103M
VL: not shown
notes: IgG1
B9: R707KMF (MSM-R707 HC CDR3 mutant, IgG1) (antibody, V domains shown)
VH: B4 VH with I102K, S103M
VL: not shown
notes: IgG1
B10: R707TMF (MSM-R707 HC CDR3 mutant, IgG1) (antibody, V domains shown)
VH: B4 VH with I102T, S103M
VL: not shown
notes: IgG1
B11: R707MTF (MSM-R707 HC CDR3 mutant, IgG1) (antibody, V domains shown)
VH: B4 VH with I102M, S103T
VL: not shown
notes: IgG1
B12: R707MAF (MSM-R707 HC CDR3 mutant, IgG1) (antibody, V domains shown)
VH: B4 VH with I102M, S103A
VL: not shown
notes: IgG1
B13: R707WMF (MSM-R707 HC CDR3 mutant, IgG1) (antibody, V domains shown)
VH: B4 VH with I102W, S103M
VL: not shown
notes: IgG1
B14: R707FMF (MSM-R707 HC CDR3 mutant, IgG1) (antibody, V domains shown)
VH: B4 VH with I102F, S103M
VL: not shown
notes: IgG1
B15: R707IMF (MSM-R707 HC CDR3 mutant, IgG1) (antibody, V domains shown)
VH: B4 VH with S103M
VL: not shown
notes: IgG1
B16: R707MGF (MSM-R707 HC CDR3 mutant, IgG1) (antibody, V domains shown)
VH: B4 VH with I102M, S103G
VL: not shown
notes: IgG1
B17: R707MRF (MSM-R707 HC CDR3 mutant, IgG1) (antibody, V domains shown)
VH: B4 VH with I102M, S103R
VL: not shown
notes: IgG1
B18: R707SMF (MSM-R707 HC CDR3 mutant, IgG1) (antibody, V domains shown)
VH: B4 VH with I102S, S103M
VL: not shown
notes: IgG1
B19: R707MQF (MSM-R707 HC CDR3 mutant, IgG1) (antibody, V domains shown)
VH: B4 VH with I102M, S103Q
VL: not shown
notes: IgG1
B20: R707RMF (MSM-R707 HC CDR3 mutant, IgG1) (antibody, V domains shown)
VH: B4 VH with I102R, S103M
VL: not shown
notes: IgG1
B21: R707MPF (MSM-R707 HC CDR3 mutant, IgG1) (antibody, V domains shown)
VH: B4 VH with I102M, S103P
VL: not shown
notes: IgG1
B22: R707MLF (MSM-R707 HC CDR3 mutant, IgG1) (antibody, V domains shown)
VH: B4 VH with I102M, S103L
VL: not shown
notes: IgG1
B23: R707NMF (MSM-R707 HC CDR3 mutant, IgG1) (antibody, V domains shown)
VH: B4 VH with I102N, S103M
VL: not shown
notes: IgG1
B24: R707MVF (MSM-R707 HC CDR3 mutant, IgG1) (antibody, V domains shown)
VH: B4 VH with I102M, S103V
VL: not shown
notes: IgG1

Target: T1, human chemokine receptor CCR7
Assay: cell-based or functional assay

IC50 of inhibition of Ca-flux induced by 18 nM CCL19, Chem-1 CCR7h cells [nM]	IC50 of inhibition of CCL19-induced Ca-flux in cells expressing human CCR7 [nM]	Binder
~20		B1
	128	B2

Target: T2, human CD22
Assay: cell-based or functional assay

Binder	EC50 of cell killing with mouse Fab-ZAP, CLL-AAT cells [nM]	EC50 of cell killing with mouse Fab-ZAP, JVM-13 cells [nM]
B3	0.06	0.5

Target: T1, human chemokine receptor CCR7
Assay: flow cytometry titration, CHO cells expressing human CCR7

EC50 [nM]	Binder
6.7	B4

Target: T1, human chemokine receptor CCR7
Assay: flow cytometry titration, CHO-human CCR7 cells, anti-human Fc-PE
Method: The affinity of IgG1 antibodies to human CCR7 was evaluated by measuring mean fluorescence value (MFI) of cells expressing CCR7 in the presence of varying concentration of antibody in question, upon staining of bound to the cells antibodies with a commercial anti-human antibody-PE conjugate. The data of such experiments are depicted in FIGS. 9, 10, and 11. In these experiments binding of some antibodies to parental cells or cells expressing mouse CCR7 was also quantitatively characterized by obtaining EC₅₀ value (a concentration of IgG1 at which half-maximum MFI is achieved) for each curve using the SoftMaxPro5 program.

EC50 [nM]	Binder
2.6	B5
5.5	B4
1.9	B6

Target: T1, human chemokine receptor CCR7
Assay: IgG1 of Table 16 on human CCR7-expressing cells

binding result	Binder
binds	B7
binds	B8
binds	B9
binds	B10
binds	B11
binds	B12
binds	B13
binds	B14
binds	B15
binds	B16
binds	B17
binds	B18
binds	B19
binds	B20
binds	B21
binds	B22
binds	B23
binds	B24

Target: T1, human chemokine receptor CCR7
Assay: flow cytometry titration on CCR7 over-expressing cells (direct binding, printed as IC50)

IC50 [nM]	Binder
4.9 to 7.6	B1
2.5 to 5.3	B2
